The target in test [1] is T1, human calcitonin receptor on BHK570/CRE-luc cells (human, UniProt P30988 25-474).
T1 sequence (looked up): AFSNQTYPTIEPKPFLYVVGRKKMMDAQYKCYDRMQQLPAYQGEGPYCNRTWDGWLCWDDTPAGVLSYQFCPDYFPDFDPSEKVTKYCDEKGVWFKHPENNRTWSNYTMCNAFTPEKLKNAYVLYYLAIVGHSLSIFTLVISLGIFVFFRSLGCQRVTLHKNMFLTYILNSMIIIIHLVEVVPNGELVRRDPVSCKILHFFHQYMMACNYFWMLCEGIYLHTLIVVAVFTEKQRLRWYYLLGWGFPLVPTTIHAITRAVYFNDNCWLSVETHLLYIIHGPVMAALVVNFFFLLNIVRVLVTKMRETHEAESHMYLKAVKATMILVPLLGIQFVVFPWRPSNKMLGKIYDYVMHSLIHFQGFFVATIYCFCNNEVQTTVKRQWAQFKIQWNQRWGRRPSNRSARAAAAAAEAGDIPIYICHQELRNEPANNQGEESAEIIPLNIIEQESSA
The test is described as follows: cell-based or functional assay.

Test [2] concerns the target T2, human amylin 3(a) receptor (human calcitonin receptor co-expressed with RAMP-3) on BHK570/CRE-luc cells (human, UniProt P30988 25-474; O60896 24-148).
T2 sequence (looked up) 1: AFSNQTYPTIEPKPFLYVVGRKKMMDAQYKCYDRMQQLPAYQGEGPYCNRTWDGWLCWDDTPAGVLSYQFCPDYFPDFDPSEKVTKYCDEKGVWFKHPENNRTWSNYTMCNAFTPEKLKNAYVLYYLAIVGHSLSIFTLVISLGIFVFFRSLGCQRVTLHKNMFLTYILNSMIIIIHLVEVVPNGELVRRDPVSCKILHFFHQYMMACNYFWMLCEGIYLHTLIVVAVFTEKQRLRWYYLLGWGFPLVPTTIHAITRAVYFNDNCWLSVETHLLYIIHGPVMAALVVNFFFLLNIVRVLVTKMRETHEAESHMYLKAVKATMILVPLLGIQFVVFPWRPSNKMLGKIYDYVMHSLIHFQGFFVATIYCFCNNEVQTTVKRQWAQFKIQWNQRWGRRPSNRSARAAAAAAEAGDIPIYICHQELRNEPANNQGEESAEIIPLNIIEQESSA
T2 sequence (looked up) 2: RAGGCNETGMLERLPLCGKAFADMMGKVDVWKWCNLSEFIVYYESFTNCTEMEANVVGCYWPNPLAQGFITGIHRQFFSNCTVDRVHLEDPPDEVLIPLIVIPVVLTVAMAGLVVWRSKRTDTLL
The test is described as follows: cell-based or functional assay.

Consider three molecules from patent US20160272683A1 (Novo Nordisk, published 2016).

Numbered stars: 1 amine (or outer) side, 2 acyl side, 3 side chain; on linkers, the order of the positions; unused ones are H or OH. * marks the point of attachment. C20 diacid = O=C(O)CCCCCCCCCCCCCCCCCCC(=O)*; C18 diacid = O=C(O)CCCCCCCCCCCCCCCCC(=O)*; γGlu = O=C(O)[C@H](CCC(=O)[*:2])N[*:1]; AEEA = NCCOCCOCC(=O)O

B1: [N-terminal(C18 diacid-gGlu-2xOEG), des1, 4G, 9V, 15Q, 21Q, 23Y, 30S, 31G, 32T, 33Y]mimylin (peptide)
peptide: {C18 diacid-γGlu-AEEA-AEEA}-ASGLSTAVLGRLSQELHELQTYPRTETGSGTY-NH2
SMILES: CC(C)C[C@H](NC(=O)CNC(=O)[C@H](CO)NC(=O)[C@H](C)NC(=O)COCCOCCNC(=O)COCCOCCNC(=O)CC[C@H](NC(=O)CCCCCCCCCCCCCCCCC(=O)O)C(=O)O)C(=O)N[C@@H](CO)C(=O)N[C@H](C(=O)N[C@@H](C)C(=O)N[C@H](C(=O)N[C@@H](CC(C)C)C(=O)NCC(=O)N[C@@H](CCCNC(=N)N)C(=O)N[C@@H](CC(C)C)C(=O)N[C@@H](CO)C(=O)N[C@@H](CCC(N)=O)C(=O)N[C@@H](CCC(=O)O)C(=O)N[C@@H](CC(C)C)C(=O)N[C@@H](Cc1c[nH]cn1)C(=O)N[C@@H](CCC(=O)O)C(=O)N[C@@H](CC(C)C)C(=O)N[C@@H](CCC(N)=O)C(=O)N[C@H](C(=O)N[C@@H](Cc1ccc(O)cc1)C(=O)N1CCC[C@H]1C(=O)N[C@@H](CCCNC(=N)N)C(=O)N[C@H](C(=O)N[C@@H](CCC(=O)O)C(=O)N[C@H](C(=O)NCC(=O)N[C@@H](CO)C(=O)NCC(=O)N[C@H](C(=O)N[C@@H](Cc1ccc(O)cc1)C(N)=O)[C@@H](C)O)[C@@H](C)O)[C@@H](C)O)[C@@H](C)O)C(C)C)[C@@H](C)O
Consider B1, for which the “hCTR funct. EC50 (pM), tested with HSA” value in test [1] is 38 pM. Besides, the “hAmylin-R funct. EC50 (pM), tested with HSA” value (“hAmylin-R funct. EC50 (pM)” for short) in test [2] was found to be 80 pM.

B2: [N-terminal(C20 diacid-gGlu), des1, 4G, 9V, 15Q, 21Q, 23Y, 30S, 31G, 32T, 33Y]mimylin (peptide)
peptide: {C20 diacid-γGlu}-ASGLSTAVLGRLSQELHELQTYPRTETGSGTY-NH2
SMILES: CC(C)C[C@H](NC(=O)CNC(=O)[C@H](CO)NC(=O)[C@H](C)NC(=O)CC[C@H](NC(=O)CCCCCCCCCCCCCCCCCCC(=O)O)C(=O)O)C(=O)N[C@@H](CO)C(=O)N[C@H](C(=O)N[C@@H](C)C(=O)N[C@H](C(=O)N[C@@H](CC(C)C)C(=O)NCC(=O)N[C@@H](CCCNC(=N)N)C(=O)N[C@@H](CC(C)C)C(=O)N[C@@H](CO)C(=O)N[C@@H](CCC(N)=O)C(=O)N[C@@H](CCC(=O)O)C(=O)N[C@@H](CC(C)C)C(=O)N[C@@H](Cc1c[nH]cn1)C(=O)N[C@@H](CCC(=O)O)C(=O)N[C@@H](CC(C)C)C(=O)N[C@@H](CCC(N)=O)C(=O)N[C@H](C(=O)N[C@@H](Cc1ccc(O)cc1)C(=O)N1CCC[C@H]1C(=O)N[C@@H](CCCNC(=N)N)C(=O)N[C@H](C(=O)N[C@@H](CCC(=O)O)C(=O)N[C@H](C(=O)NCC(=O)N[C@@H](CO)C(=O)NCC(=O)N[C@H](C(=O)N[C@@H](Cc1ccc(O)cc1)C(N)=O)[C@@H](C)O)[C@@H](C)O)[C@@H](C)O)[C@@H](C)O)C(C)C)[C@@H](C)O
As for B2, the “hCTR funct. EC50 (pM), tested with HSA” value in test [1] was 54 pM. In addition, the “hAmylin-R funct. EC50 (pM)” value in test [2] amounted to 105 pM.

B3: [N-terminal(C20 diacid-gGlu-2xOEG), des1, 4G, 9V, 15Q, 21Q, 23Y, 30S, 31G, 32T, 33Y]mimylin (peptide)
peptide: {C20 diacid-γGlu-AEEA-AEEA}-ASGLSTAVLGRLSQELHELQTYPRTETGSGTY-NH2
SMILES: CC(C)C[C@H](NC(=O)CNC(=O)[C@H](CO)NC(=O)[C@H](C)NC(=O)COCCOCCNC(=O)COCCOCCNC(=O)CC[C@H](NC(=O)CCCCCCCCCCCCCCCCCCC(=O)O)C(=O)O)C(=O)N[C@@H](CO)C(=O)N[C@H](C(=O)N[C@@H](C)C(=O)N[C@H](C(=O)N[C@@H](CC(C)C)C(=O)NCC(=O)N[C@@H](CCCNC(=N)N)C(=O)N[C@@H](CC(C)C)C(=O)N[C@@H](CO)C(=O)N[C@@H](CCC(N)=O)C(=O)N[C@@H](CCC(=O)O)C(=O)N[C@@H](CC(C)C)C(=O)N[C@@H](Cc1c[nH]cn1)C(=O)N[C@@H](CCC(=O)O)C(=O)N[C@@H](CC(C)C)C(=O)N[C@@H](CCC(N)=O)C(=O)N[C@H](C(=O)N[C@@H](Cc1ccc(O)cc1)C(=O)N1CCC[C@H]1C(=O)N[C@@H](CCCNC(=N)N)C(=O)N[C@H](C(=O)N[C@@H](CCC(=O)O)C(=O)N[C@H](C(=O)NCC(=O)N[C@@H](CO)C(=O)NCC(=O)N[C@H](C(=O)N[C@@H](Cc1ccc(O)cc1)C(N)=O)[C@@H](C)O)[C@@H](C)O)[C@@H](C)O)[C@@H](C)O)C(C)C)[C@@H](C)O
With B3, in test [1], the “hCTR funct. EC50 (pM), tested with HSA” value is 68 pM. Moreover, the “hAmylin-R funct. EC50 (pM)” value in test [2] came to 123 pM.
